Measurements as given in patent US20240287172A1 (SCIRHOM, published 2024).

T1: hiR2-FL-W526A-T7 (human, UniProt Q6PJF5 1-856)
T1 sequence: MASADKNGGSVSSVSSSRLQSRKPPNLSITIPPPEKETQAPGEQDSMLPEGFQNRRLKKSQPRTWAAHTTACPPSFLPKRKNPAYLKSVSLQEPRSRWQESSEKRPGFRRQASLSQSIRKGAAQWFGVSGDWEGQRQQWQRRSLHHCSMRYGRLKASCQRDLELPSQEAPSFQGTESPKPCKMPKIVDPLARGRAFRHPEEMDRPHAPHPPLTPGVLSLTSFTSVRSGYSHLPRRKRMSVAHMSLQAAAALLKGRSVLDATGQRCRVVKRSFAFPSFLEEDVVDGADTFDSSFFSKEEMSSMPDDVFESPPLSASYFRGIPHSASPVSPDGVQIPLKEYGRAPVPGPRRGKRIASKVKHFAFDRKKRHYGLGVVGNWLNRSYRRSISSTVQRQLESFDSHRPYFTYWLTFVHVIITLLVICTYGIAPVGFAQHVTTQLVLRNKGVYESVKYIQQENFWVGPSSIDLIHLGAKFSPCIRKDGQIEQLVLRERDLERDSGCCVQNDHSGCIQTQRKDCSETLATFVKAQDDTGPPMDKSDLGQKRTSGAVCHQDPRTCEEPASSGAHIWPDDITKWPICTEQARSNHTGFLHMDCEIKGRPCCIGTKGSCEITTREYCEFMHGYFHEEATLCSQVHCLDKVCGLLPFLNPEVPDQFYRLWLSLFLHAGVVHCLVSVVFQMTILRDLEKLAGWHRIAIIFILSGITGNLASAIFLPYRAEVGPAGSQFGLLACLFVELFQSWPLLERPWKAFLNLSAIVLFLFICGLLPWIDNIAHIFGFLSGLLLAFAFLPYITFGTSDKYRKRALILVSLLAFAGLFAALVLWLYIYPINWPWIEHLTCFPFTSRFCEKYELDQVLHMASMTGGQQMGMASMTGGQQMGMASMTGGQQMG

T2: hiR2-FL-R543A-T7 (human, UniProt Q6PJF5 1-856)
T2 sequence: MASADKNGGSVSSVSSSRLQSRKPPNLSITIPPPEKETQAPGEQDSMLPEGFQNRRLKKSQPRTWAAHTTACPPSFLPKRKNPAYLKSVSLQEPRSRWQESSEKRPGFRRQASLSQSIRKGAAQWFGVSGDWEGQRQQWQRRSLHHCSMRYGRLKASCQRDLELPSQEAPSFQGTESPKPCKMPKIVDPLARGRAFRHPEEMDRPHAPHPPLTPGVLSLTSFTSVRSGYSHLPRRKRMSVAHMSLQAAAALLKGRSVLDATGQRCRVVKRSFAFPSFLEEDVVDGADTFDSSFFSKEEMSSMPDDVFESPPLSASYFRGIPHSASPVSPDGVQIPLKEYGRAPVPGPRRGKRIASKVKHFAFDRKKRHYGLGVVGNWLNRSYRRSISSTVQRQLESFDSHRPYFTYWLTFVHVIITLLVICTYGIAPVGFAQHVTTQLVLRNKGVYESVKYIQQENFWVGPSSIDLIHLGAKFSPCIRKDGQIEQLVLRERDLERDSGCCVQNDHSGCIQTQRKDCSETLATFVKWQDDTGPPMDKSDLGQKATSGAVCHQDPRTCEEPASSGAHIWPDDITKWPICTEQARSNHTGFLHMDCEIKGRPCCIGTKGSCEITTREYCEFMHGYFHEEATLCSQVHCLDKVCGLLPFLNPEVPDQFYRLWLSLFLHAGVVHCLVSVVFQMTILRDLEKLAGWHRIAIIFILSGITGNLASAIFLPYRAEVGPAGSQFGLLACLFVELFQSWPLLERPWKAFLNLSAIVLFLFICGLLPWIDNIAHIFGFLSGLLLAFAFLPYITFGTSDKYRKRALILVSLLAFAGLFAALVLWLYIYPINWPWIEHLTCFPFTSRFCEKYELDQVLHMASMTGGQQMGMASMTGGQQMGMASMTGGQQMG


Experiments:
[1] = biological target: T1, hiR2-FL-W526A-T7; test: FACS on MEF-DKO cells expressing the variant, 3 µg/ml antibody
Experimental: (§1) To pellet cells and remove supernatants, the plates were centrifuged at 1,500 rpm and 4° C. for 3 minutes. For primary staining, cells were resuspended in 100 μl per well of either FACS buffer alone (controls) or the purified antibodies 3, 5, 16, 22, 34, 42, 43, 44, 48, and 50 of the invention at 3 μg/ml in FACS buffer and incubated on ice for 1 hour. Afterwards, plates were centrifuged at 1,500 rpm and 4° C. for 3 minutes and washed twice with 200 μl per well of FACS buffer. For secondary staining, cells were spun down and resuspended in 100 μl per well of PE-conjugated goat anti-mouse IgG F(ab′)2 detection fragment (Dianova, Germany) diluted 1:100 in FACS buffer. Protected from light, the cell suspensions were incubated on ice for 1 hour. Plates were then centrifuged at 1,500 rpm and 4° C. for 3 minutes and washed three times with 200 μl per well of FACS buffer. Finally, cells were resuspended in 150 μl per well of FACS buffer and analyzed using a BD Accuri™ C6 Plus flow cytometer (Becton Dickinson, Germany).

[2] = biological target: T2, hiR2-FL-R543A-T7; test: as above
Experimental: as §1

Binder	loss of binding vs wild type [1] [%]	loss of binding vs wild type [2] [%]
antibody 34 (antibody, V domains shown, mouse IgG, kappa light chain; also called clone #34; purified antibody 34) VH: QVTLKESGPGILQPSQTLSLTCSFSGFSLSTFSLGVGWIRQSSGKGLEWLAHIWWDDEKYYNPALKSRLTISKDTSKNQVFLKIANVDAADTATYYCARAYYSKSYYALDYWGQGTSVTVSS VL: DIQMTQSPSSLSASLGERVSLTCRASQEISGYLSWLQQKPDGTIKRLIYAASTLDSGVPKRFSGSRSGSDYSLAISSLESEDFADYYCLQYANFPFTFGSGTKLEIK	≥ 60	≥ 95
antibody 48 (antibody, V domains shown, mouse IgG, kappa light chain; also called clone #48; purified antibody 48) VH: QVQLQQSGTELVRPGTSVKVSCKASGYAFTNYLIEWVKQRPGQGLEWIGVINPGSGFTKYNEKFKGKATLTADKSSSTVYMHLSSLTSEDSAVYFCARGLYRAMDYWGQGTSVTVSS VL: DIQMTQSPASQSASLGESVTITCLASQTIATWLAWYQQKPGKSPQLLIYGATTLADGVPSRFSGGGSGTKFSFKISSLQAEDFVSYYCQQLYSTPYTFGGGTKLEIK	≥ 30	
antibody 50 (antibody, V domains shown, mouse IgG, kappa light chain; also called clone #50; purified antibody 50) VH: QVQLQQSGAELVRPGASVKVSCKASGYAFSNYLIEWVKQRPGQGLEWIGVINPGSGFTKYNEKFKGKATLTADKSSSTAYMQLSSLTSEDSAVYFCARGLYRAMDYWGQGTSVTVSS VL: DIQMTQSPASQSASLGESVTITCLASQTIGTWLAWYQQKPGKSPQLLIYAAASLADGVPSRFSGGGSGTKFSFKISSLQAEDFVNYYCQQIYSTPYTFGGGTKLEIK	≥ 30	
antibody 5 (antibody, V domains shown, mouse IgG, kappa light chain; also called clone #5; purified antibody 5) VH: QVTLKESGPGILQPSQTLSLTCSFSGFSLSTFGMGVGWIRQPSGKGLEWLAHIWWDDEKYYNSALKSRLTISKATSKNQAFLKIANVDTADTATYYCARISNYGSNYWYFNVWGTGTTVTVSS VL: QVVLTQSPALMSASPGEKVTMTCSAGSSVSCMYWYQQKPGSSPRVLIYDTSNLASGVPARFTGSGSGTSYSLTISRMEAEDAASYYCQQWNSYPLTFGAGTKLELK	≥ 60	≥ 60
antibody 43 (antibody, V domains shown, mouse IgG, kappa light chain; also called clone #43; purified antibody 43) VH: QVALKESGPGILQPSQTLSLTCSFSGFSLSTFGMGVGWIRQSSGKGLEWLANIWWDDDKYYNPALKSRLTISKDASKNQAFLKIANVDTADTATYYCARIGNYGSNYWYFDVWGTGTTVTVSS VL: QIVLTQSPAIMSASPGERVTMTCSANSRISYMYWYQQKPGSSPRLLIYDTSNLASGVPVRFSGSGSGTSYSLTISRMEAEDAATYNCQQWSSYPLTFGAGTKLELK	≥ 30	≥ 95
antibody 42 (antibody, V domains shown, mouse IgG, kappa light chain; also called clone #42; purified antibody 42) VH: QVTLKESGPGILQPSQTLSLTCSLSGFSLSTFGRGVGWIRQPSGKGLEWLAHIWWDDEKYYNPALKSRLTISKDTSKNQVFLRIANVDTADTATYYCARIQNYGSNYWYFDVWGTGTTVTVSS VL: LIVLTQSPAIMSASPGEKVTMTCGATSRISYMFWYQQKPGSSPRVLIYDTSNLASGVPVRFSGSGSGTSYSLTISRVEAEDVATYYCQQWNSYPLTFGAGTKLELK	≥ 30	≥ 60
antibody 44 (antibody, V domains shown, mouse IgG, kappa light chain; also called clone #44; purified antibody 44) VH: QVTLKESGPGILQPSQTLSLTCSFSGFSLSTFGMGVGWIRQPSEKGLEWLAHIWWDDDKYYNPALKSRLTISKDTSKNQIFLKITNVDTAETATYYCSRIGNYGSNYWYFDVWGTGTTVTVSS VL: QIVLTQSPAVMSASPGEKVTMTCTASSSVYYMYWYQQTPGSSPRLLIYDTSNLASGVPVRFSGSGSGTSYSLTISRMEAEDAATYYCQQWNTYPLTFGAGTKLELK	≥ 30	≥ 95
antibody 22 (antibody, V domains shown, mouse IgG, kappa light chain; also called clone #22; purified antibody 22) VH: QVTLKESGPGILQPSQTLSLTCSFSGFSLSTFGMGVGWIRQPSGKGLEWLAHIWWDDEKYYNSALKSRLTISKATSKNQVFLKIANVDTADTATYYCARISNYGSNYWYFNVWGTGTTVTVSS VL: QVVLTQSPALMSASPGEKVTMTCSAGSSVSYMYWYQQKPGSSPRVLIYDTSNLASGVPARFTGSGSGTSYSLTISRMEAEDAATYYCQQWNSYPLTFGAGTKLELK	≥ 30	≥ 60
antibody 3 (antibody, V domains shown, mouse IgG, kappa light chain; also called clone #3; purified antibody 3) VH: QVTLKESGPGILQPSQTLSLTCSFSGFSLTTFAMGIGWVRQPSGKGLEWLAHIWWDGEKYNNPVLKSRLTISKDTSKNQVFLRIANVDTPDTATYYCARISSIYYIIDNWGQGTSVTVSS VL: DIVLTQSPATLSVTPGHSVSLSCRASQSISNNLHWYQKKSHESPRLLIKYVSQSISGIPSRFSGSGSGTDFTLSINSVETEDFGMYFCQQSYNWPLTFGAGTKLELK	≥ 30	≥ 30
